Target: T1, CBP Full-HAT domain (central core catalytic region), 6His-tagged (mouse, UniProt P45481 1096-1700)
T1 sequence (looked up): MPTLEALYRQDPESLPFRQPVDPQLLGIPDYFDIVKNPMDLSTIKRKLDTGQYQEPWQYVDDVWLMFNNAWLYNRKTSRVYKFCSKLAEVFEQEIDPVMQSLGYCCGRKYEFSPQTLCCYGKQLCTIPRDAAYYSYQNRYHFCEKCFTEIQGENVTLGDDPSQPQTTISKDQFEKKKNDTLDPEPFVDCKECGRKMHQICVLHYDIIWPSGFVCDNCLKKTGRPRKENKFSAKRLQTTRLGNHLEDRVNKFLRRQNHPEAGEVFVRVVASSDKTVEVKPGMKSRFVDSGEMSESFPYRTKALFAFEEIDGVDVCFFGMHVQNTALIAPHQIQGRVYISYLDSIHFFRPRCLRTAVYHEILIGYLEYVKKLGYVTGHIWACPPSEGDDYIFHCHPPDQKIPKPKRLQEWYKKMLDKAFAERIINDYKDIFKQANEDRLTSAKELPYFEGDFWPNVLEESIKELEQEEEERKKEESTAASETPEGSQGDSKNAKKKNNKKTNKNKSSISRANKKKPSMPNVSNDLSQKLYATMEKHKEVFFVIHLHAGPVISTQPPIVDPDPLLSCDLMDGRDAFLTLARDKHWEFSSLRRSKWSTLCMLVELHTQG
Assay: BLI

Kd: 1 nM
B1: biotinylated recombinant full-length HSF2 (natural protein, UniProt Q03933 1-536, looked up)
chain: MKQSSNVPAFLSKLWTLVEETHTNEFITWSQNGQSFLVLDEQRFAKEILPKYFKHNNMASFVRQLNMYGFRKVVHIDSGIVKQERDGPVEFQHPYFKQGQDDLLENIKRKVSSSKPEENKIRQEDLTKIISSAQKVQIKQETIESRLSELKSENESLWKEVSELRAKHAQQQQVIRKIVQFIVTLVQNNQLVSLKRKRPLLLNTNGAQKKNLFQHIVKEPTDNHHHKVPHSRTEGLKPRERISDDIIIYDVTDDNADEENIPVIPETNEDVISDPSNCSQYPDIVIVEDDNEDEYAPVIQSGEQNEPARESLSSGSDGSSPLMSSAVQLNGSSSLTSEDPVTMMDSILNDNINLLGKVELLDYLDSIDCSLEDFQAMLSGRQFSIDPDLLVDLFTSSVQMNPTDYINNTKSENKGLETTKNNVVQPVSEEGRKSKSKPDKQLIQYTAFPLLAFLDGNPASSVEQASTTASSEVLSSVDKPIEVDELLDSSLDPEPTQSKLVRLEPLTEAEASEATLFYLCELAPAPLDSDMPLLDS
modifications: biotinylated with EZ-Link NHS-PEG4-Biotin at a molar ratio biotin/protein 3:1

From article doi:10.1101/481457 (bioRxiv, 2019)
